Source: PMC4140852 (PLoS Pathogens, 2014)

B1: rAPRc_(99–231), intermediate of activation of RC1339/APRc (Aspartic Protease from Rickettsia conorii) soluble catalytic domain, C-terminal His-tag (domain or fragment)
chain: SALIPSYKWSTEVGEIIIARNRDGHFYINAFVNNVKIKFMVDTGASDIALTKEDAQKLGFDLTKLKYTRTYLTANGENKAAPITLNSVVIGKEFKNIKGHVGLGDLDISLLGMSLLERFKGFRIDKDLLILNY
notes: also called rAPRc99–231-His; APRc_(99–231)His; not shown: His6, C-terminal, kept
B2: rAPRc_(105–231), activation product derived from rAPRc_(99–231) by auto-processing (enzyme)
chain: YKWSTEVGEIIIARNRDGHFYINAFVNNVKIKFMVDTGASDIALTKEDAQKLGFDLTKLKYTRTYLTANGENKAAPITLNSVVIGKEFKNIKGHVGLGDLDISLLGMSLLERFKGFRIDKDLLILNY

Biological target: the molecule itself
Experiment: cross-linking

Protein | stoichiometry N
B1 | 2
B2 | 2
